Assay in all cases: cell staining of β8 amino acid swap constructs (175-180)
In test [1] the target is T1, human integrin β8 swap construct RKMALY (SEQ ID NO:129) (human, UniProt P26012 43-769).
T1 sequence: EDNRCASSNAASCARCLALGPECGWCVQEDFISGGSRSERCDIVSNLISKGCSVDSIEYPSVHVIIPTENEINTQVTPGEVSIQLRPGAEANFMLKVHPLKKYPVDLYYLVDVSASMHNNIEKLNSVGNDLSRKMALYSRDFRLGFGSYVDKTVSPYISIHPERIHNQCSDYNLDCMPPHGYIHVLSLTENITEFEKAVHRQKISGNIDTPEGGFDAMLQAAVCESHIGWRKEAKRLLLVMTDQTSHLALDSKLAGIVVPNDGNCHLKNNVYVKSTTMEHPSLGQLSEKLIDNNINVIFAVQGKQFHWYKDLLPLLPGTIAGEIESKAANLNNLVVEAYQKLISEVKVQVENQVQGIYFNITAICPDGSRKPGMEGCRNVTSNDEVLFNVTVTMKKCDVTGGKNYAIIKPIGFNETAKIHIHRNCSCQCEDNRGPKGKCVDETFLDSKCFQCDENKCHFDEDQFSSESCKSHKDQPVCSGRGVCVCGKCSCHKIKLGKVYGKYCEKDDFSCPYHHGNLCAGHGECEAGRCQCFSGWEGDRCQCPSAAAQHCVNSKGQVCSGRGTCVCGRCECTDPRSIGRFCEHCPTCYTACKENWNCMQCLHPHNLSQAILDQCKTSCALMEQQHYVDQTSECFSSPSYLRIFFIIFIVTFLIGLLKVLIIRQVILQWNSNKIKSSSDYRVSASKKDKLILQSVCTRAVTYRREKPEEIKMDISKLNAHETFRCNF

Test [2] concerns the target T2, human integrin β8 swap construct KKMAFY (SEQ ID NO:131) (human, UniProt P26012 43-769).
T2 sequence: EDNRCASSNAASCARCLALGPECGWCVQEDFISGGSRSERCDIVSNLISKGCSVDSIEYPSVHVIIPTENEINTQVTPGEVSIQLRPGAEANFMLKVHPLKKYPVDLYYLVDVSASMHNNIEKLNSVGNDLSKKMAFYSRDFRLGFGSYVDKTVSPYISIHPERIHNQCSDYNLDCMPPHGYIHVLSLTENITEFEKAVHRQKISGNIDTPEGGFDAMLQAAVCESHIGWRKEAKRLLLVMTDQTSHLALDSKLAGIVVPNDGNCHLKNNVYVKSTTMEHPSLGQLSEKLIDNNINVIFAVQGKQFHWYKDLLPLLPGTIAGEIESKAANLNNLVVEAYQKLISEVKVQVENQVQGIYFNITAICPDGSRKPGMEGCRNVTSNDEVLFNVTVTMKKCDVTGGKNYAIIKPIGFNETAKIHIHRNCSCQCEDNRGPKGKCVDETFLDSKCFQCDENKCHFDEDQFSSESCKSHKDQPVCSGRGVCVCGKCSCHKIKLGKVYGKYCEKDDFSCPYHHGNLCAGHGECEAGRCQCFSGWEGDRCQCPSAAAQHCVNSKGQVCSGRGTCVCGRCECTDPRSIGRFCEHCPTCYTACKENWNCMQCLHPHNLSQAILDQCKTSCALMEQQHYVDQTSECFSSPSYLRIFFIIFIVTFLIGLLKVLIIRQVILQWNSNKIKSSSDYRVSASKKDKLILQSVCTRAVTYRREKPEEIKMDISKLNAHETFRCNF

Test [3] addresses T3, human integrin β8 swap construct RKMAFY (SEQ ID NO:130) (human, UniProt P26012 43-769).
T3 sequence: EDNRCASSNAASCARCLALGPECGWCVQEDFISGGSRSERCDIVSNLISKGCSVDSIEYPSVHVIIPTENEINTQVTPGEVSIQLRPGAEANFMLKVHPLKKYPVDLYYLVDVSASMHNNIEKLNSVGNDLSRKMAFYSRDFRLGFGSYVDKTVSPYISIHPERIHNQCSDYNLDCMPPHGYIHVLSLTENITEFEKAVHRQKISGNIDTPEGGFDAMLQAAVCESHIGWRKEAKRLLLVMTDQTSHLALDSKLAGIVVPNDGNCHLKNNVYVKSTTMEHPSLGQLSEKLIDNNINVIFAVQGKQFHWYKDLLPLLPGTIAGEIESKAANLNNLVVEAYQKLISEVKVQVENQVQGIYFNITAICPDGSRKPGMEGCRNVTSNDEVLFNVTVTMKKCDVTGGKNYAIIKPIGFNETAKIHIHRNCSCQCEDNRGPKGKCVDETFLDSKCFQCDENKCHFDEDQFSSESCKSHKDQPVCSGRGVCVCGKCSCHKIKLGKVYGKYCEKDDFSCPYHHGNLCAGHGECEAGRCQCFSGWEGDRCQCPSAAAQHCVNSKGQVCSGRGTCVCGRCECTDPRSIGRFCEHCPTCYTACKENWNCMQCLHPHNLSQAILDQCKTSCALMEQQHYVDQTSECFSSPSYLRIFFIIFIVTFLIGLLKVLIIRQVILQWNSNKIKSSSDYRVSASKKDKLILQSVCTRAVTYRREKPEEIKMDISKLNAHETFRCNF

B1: 37E1B5 antibody (antibody, V domains shown)
VH: EVQLVESGGGLVQPGGSLNLSCAVSGFVFSRYWMSWVRQAPGKGLEWIGEINPDSSTINYTSSLKDKFIISRDNAKNTLYLQMNKVRSEDTALYYCACLITTEDYWGQGTSVTVSS
VL: QIVLTQSPSSMYASLGERVTIPCKASQDINSYLSWFQQKPGKSPKTLIYYANRLVDGVPSRFSGSGSGQDYSLTISSLEYEDMGIYYCLQYDEFPYTFGGGTKLEIK
With B1, the “% positive” value in test [1] was determined as 14%; in test [2] it was 3%; in test [3], 89%.

B2: 14E5 antibody (antibody, V domains shown)
VH: EVQLQQSGAELMKPGASVKISCKATGYTFSTYWIEWIKQRPGHGLEWIGHILPGSVITNYNEKFKGKAAITADTSSNTSYMQLSSLTSEDSAVYYCARWGWDSYWGQGTLVTVSS
VL: DIEMTQSPSSLSASLGDRVTISCSTSQDISSSLNWYQQKPDGTVTLLIYYTSNLHSGVPSRFSGSGSGTDYSLTISNLEPEDIATYYCQQYSKLPYTFGGGTKLEIKR
notes: Mouse hybridoma antibody; also called hybridoma clone 14E5
Regarding B2, the results for the “% positive” value in test [1], in test [2] and in test [3] were 1%, 6% and 6%, respectively.

B3: 11E8 antibody (antibody, V domains shown)
VH: EVQLQQSGPELMKTGASVKISCKATGYTFSSYWIEWVKQRPGHGLEWIGDILPGSGTTNYNEKFKGRATVTADRSSNTAYMQLSSLTYGDSAVYYCATWGWDTYWDQGTSVTVSS
VL: DIVMTQSPSSLSASLGDRVTISCSASQGISNYLNWYQQKPDGTVKLLIYYTSSLHSGVPSRFSGSGSGTDYSLTISNLEPEDIATYYCQQYSNLPYTFGGGTKLEIKR
notes: Mouse hybridoma antibody
Consider B3, for which the “% positive” value came out at 4% in test [1], 31% in test [2] and 108% in test [3].

(Values after patent US20140271478A1 (University of California, published 2014).)
